Data set [1] addresses T1, ScRPA (Rfa1-Rfa2-Rfa3 heterotrimer, wild type) (Saccharomyces cerevisiae, UniProt P22336;P26754;P26755 1-621;1-273;1-122). Nature of the data set: FRET titration; 10 nM DNA; Hill fit; panel in Supplementary Fig. 14 gives 38.7 ± 0.8; EMSA: 20 mM Tris pH 7.5, 150 mM NaCl, 10 mM MgCl2, 0.01% Tween-20, room temperature, 30 min; MST: MST-binding buffer (composition not in material), room temperature, 20 min; FRET: reaction buffer not given, 10 nM DNA. To be noted: protein: recombinant; tags: TEV-cleavable His6 on Rfa1; copies: 1;1;1; label: 5' Cy5, Cy3 after nt 29.

The target in data set [2] is T1, ScRPA (Rfa1-Rfa2-Rfa3 heterotrimer, …). Nature of the data set: MST; apparent EC50; Hill slope 0.9 ± 0.1; EMSA: 20 mM Tris pH 7.5, 150 mM NaCl, 10 mM MgCl2, 0.01% Tween-20, room temperature, 30 min; MST: MST-binding buffer (composition not in material), room temperature, 20 min; FRET: reaction buffer not given, 10 nM DNA. To be noted: protein: recombinant; tags: TEV-cleavable His6 on Rfa1; copies: 1;1;1; label: 5' Cy5. (In general: A gel shift assay detects complexes by their altered migration in electrophoresis.)

Another data set addresses DBD-A S178D (Saccharomyces cerevisiae, UniProt P22336 178-294, S178D). Nature of the data set: MST; S178D did not affect dT7 binding; EMSA: 20 mM Tris pH 7.5, 150 mM NaCl, 10 mM MgCl2, 0.01% Tween-20, room temperature, 30 min; MST: MST-binding buffer (composition not in material), room temperature, 20 min; FRET: reaction buffer not given, 10 nM DNA. The note with it: protein: recombinant; tags: GST removed by 3C cleavage; label: Cy5 (5').

A further data set concerns the target DBD-A (Rfa1) (Saccharomyces cerevisiae, UniProt P22336 178-294). Nature of the data set: MST; EC50; EMSA: 20 mM Tris pH 7.5, 150 mM NaCl, 10 mM MgCl2, 0.01% Tween-20, room temperature, 30 min; MST: MST-binding buffer (composition not in material), room temperature, 20 min; FRET: reaction buffer not given, 10 nM DNA. To be noted: protein: recombinant; tags: GST removed by 3C cleavage; label: Cy5 (5').

In data set [3] the target is T1, ScRPA (Rfa1-Rfa2-Rfa3 heterotrimer, …). Nature of the data set: FRET titration; stoichiometric, X0 = 8.7 ± 0.3 nM at 10 nM DNA (1:1); EMSA: 20 mM Tris pH 7.5, 150 mM NaCl, 10 mM MgCl2, 0.01% Tween-20, room temperature, 30 min; MST: MST-binding buffer (composition not in material), room temperature, 20 min; FRET: reaction buffer not given, 10 nM DNA. To be noted: protein: recombinant; tags: TEV-cleavable His6 on Rfa1; copies: 1;1;1; label: 5' Cy5, 3' Cy3.

By Kd is commonly meant a measure of binding affinity in units of concentration.

T1 sequence (P22336 whole entry, chain 1 of 3): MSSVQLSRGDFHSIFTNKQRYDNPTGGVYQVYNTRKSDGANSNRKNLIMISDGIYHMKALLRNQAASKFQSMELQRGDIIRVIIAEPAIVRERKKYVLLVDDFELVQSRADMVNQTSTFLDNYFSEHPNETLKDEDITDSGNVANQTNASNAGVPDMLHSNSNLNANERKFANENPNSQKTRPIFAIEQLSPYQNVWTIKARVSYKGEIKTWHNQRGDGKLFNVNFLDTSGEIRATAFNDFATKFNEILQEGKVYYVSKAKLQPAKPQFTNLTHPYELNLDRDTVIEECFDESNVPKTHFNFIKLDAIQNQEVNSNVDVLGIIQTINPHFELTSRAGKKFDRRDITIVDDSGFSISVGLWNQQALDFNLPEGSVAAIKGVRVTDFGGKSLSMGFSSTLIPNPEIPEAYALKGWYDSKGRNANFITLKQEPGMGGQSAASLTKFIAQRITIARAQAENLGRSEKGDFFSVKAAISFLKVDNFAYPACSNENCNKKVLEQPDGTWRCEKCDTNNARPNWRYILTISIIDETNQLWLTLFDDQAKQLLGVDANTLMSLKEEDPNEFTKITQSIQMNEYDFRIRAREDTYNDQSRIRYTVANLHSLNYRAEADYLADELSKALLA
T1 sequence (P26754 whole entry, chain 2 of 3): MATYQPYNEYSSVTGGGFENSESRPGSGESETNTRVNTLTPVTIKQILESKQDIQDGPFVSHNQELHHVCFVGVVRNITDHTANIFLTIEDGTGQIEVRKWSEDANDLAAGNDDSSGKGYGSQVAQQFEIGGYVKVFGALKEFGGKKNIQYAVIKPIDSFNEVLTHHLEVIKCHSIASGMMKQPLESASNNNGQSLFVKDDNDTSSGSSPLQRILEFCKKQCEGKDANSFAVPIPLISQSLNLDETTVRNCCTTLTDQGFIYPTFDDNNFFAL
T1 sequence (P26755 whole entry, chain 3 of 3): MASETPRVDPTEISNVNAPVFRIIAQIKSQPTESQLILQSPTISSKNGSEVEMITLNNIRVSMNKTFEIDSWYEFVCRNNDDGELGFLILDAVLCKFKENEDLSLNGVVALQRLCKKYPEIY
Sequence of DBD-A S178D (P22336 178-294 S178D): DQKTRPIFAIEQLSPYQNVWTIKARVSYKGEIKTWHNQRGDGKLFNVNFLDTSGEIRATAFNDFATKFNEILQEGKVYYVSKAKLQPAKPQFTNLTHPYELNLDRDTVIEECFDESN
Sequence of DBD-A (Rfa1) (P22336 178-294): as the sequence (P22336 178-294 S178D) above, with D1S counted along it

B1: dT90(1-30) (ssDNA)
DNA: TTTTTTTTTTTTTTTTTTTTTTTTTTTTTTTTTTTTTTTTTTTTTTTTTTTTTTTTTTTTTTTTTTTTTTTTTTTTTTTTTTTTTTTTTT
modifications: internal Cy3 in backbone
For the molecule B1, the dissociation constant (Kd) in data set [1] was 39.3 ± 0.9 nM.

B2: dT100 (Cy5) (ssDNA)
DNA: TTTTTTTTTTTTTTTTTTTTTTTTTTTTTTTTTTTTTTTTTTTTTTTTTTTTTTTTTTTTTTTTTTTTTTTTTTTTTTTTTTTTTTTTTTTTTTTTTTTT
Consider B2, for which the “apparent K (half saturation)” value in data set [2] is around 20 nM.

On to TTTTTTT (ssDNA) [dT7 (Cy5)], for which the binding result with DBD-A S178D was “binds”. For the same molecule, the “apparent K (half saturation)” value with DBD-A (Rfa1) was 309 ± 18 nM.

As to TTTTTTTTTTTTTTTTTTTTTTTTTTTTTT (ssDNA) [dT30 (FRET)], the binding result in data set [3] is “binds”.
